Where a chain is given by its changes, count along the chain named. Numbers in names are those of the source.
Experiments:
Assay in all cases: purified protein
Settings in all cases: 37 °C
[1] = substrate: NC(=O)CC[C@H](N)C(=O)O
[2] = substrate: NC(=O)C[C@H](N)C(=O)O; format: biochemical, Wolinella succinogenes
[3] = substrate: NC(=O)CC[C@H](N)C(=O)O; format: biochemical, Wolinella succinogenes

B1: WoA-S121 (Wolinella succinogenes L-asparaginase) (Wolinella succinogenes DSM 1740) (protein)
chain: MAKPQVTILATGGTIAGSGESSVKSSYSAGAVTVDKLLAAVPAINDLATIKGEQISSIGSQEMTGKVWLKLAKRVNELLAQKETEAVIITHGTDTMEETAFFLNLTVKSQKPVVLVGAMRSGSSMSADGPMNLYNAVNVAINKASTNKGVVIVMNDEIHAAREATKLNTTAVNAFASPNTGKIGTVYYGKVEYFTQSVRPHTLASEFDISKIEELPRVDILYAHPDDTDVLVNAALQAGAKGIIHAGMGNGNPFPLTQNALEKAAKSGVVVARSSRVGSGSTTQEAEVDDKKLGFVATESLNPQKARVLLMLALTKTSDREAIQKIFSTY
notes: recombinant, pET28 vector, E. coli BL21-AI; 330 residues per protomer; tetramer (dimer of dimers)
[1]
  Km: 380 ± 50 µM
  kcat: 1.58 s⁻¹
  kcat/Km: 4200 M⁻¹ s⁻¹
[2]
  Km: 21.7 ± 1.2 µM
  kcat: 97.8 ± 1 s⁻¹
  kcat/Km: 4.5e+06 ± 250000 M⁻¹ s⁻¹

B2: WoA-S121 (Wolinella succinogenes L-asparaginase) (Wolinella succinogenes DSM 1740; S121P) (protein)
chain: B1 chain with S121P
notes: as for B1
[3]
  Km: 320 ± 20 µM
  kcat: 11.33 ± 0.11 s⁻¹
  kcat/Km: 35300 ± 2240 M⁻¹ s⁻¹
[2]
  Km: 23.6 ± 1.1 µM
  kcat: 86.7 ± 0.8 s⁻¹
  kcat/Km: 3.7e+06 ± 170000 M⁻¹ s⁻¹

From publication PMC5282591, “The differential ability of asparagine and glutamine in promoting the closed/active enzyme conformation rationalizes the Wolinella succinogenes L-asparaginase substrate specificity” (Scientific Reports, 2017)
